In the nanobody polyreactivity screen of Harvey et al. (2022):

Test: yeast display, Sf9 membrane polyspecificity reagent, FACS + sequencing; frameworks hold sequencing errors
In short: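 Using colony PCR, genes from sorted yeast display clones were amplified, then sequenced on MiSeq at 2 × 250 and filtered by CDR length. The clones had been stained with 10% biotinylated, detergent-solubilized Sf9 membrane reagent for 1 hour at 4 °C and sorted by FACS into low and high (top ~1%) gates on anti-HA and streptavidin fluorescence. Polyreactivity labels come from the gate of origin.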

Row | Sequence | polyreactivity (PSR sort gate)
1 | QVQLVESGGGLVQAGGSLRLICAASGSIFDYNAMGWYRQAPGKERELVAAITSTDSTYADSVKGRFTISRDNAKNTVYLQMNSLKPEDTAVYYCNARYLAWTYYYPYDYWGQGTQVTVSS | low polyreactivity
2 | QVQLVESGGGLVQAGGSLRLICAASGSIFFWYTMGWYRQAPGKERELVATITGSGSSTTYADSVKGRFTISRDNAKYTVYLQMNSLKPEDTAVYYCAAADIIDHSFPYDYWGQGTQVTVSS | low polyreactivity
3 | QVQLVESGGGLVQAGGSLRLICAASGSIFHIYMGWYRQAPGKEMEVVASISYRGGTTYYADSVKGRFTISRDNAKNSVYFQMNSLKPEDTAVYYCNVDRYFYHYGRYGHMDYWGQATQVTVSS | low polyreactivity
4 | QVQLVESGGGLVQAGGSLRLICAASGSIFLHYGMGWYRQAPGKERELVAAISWRCRSTYYADSVKGRFTISRDNAKNTVYLQMNSLKPEDTAVYYCNAEYAFPLSGSGYWGQGTQVTVSS | low polyreactivity
5 | QVQLVESGGGLVQAGGSLRLICAASGSIFLQYTMGWYRQAPGKERELVAAITESDGSTYYADSVKGRFTISRDNAKNTVYLQMNSLKPEDTGVYYCAAEVVYFKYWDKYDYWGQGTQVTVSS | low polyreactivity
6 | QVQLVESGGGLVQAGGSLRLICAASGSIFRINAMGWYRQAPGKEMELVAAITGRVGSTYYADSVKGRFTISRDNAKNTVYLQMNSLKPEDTAVYYCAARAGSSRYTREYRYDYWGQGTQVTVSS | high polyreactivity
7 | QVQLVESGGGLVQAGGSLRLICAASGSIFTIYAMGWYRQAPGKERELVAAISYSDTSTYYADSVKGRFTISRDNAKNTVYLQMNSLKPEDTAVYYCAAEDLWYIAYWDDMDYWGQGTQVTVSS | low polyreactivity
8 | QVQLVESGGGLVQAGGSLRLICAASGSIFTRNAMGWYRQAPGKEREFVAAISSSGVSTYYADSVKGRFTISRDNAKNTVYLQMISLKPEDTAVYYCAARWGTKSGRYDYWGQGTQVTVSS | high polyreactivity
9 | QVQLVESGGGLVQAGGSLRLICAASGSIFYHNGMGWYRQAPGKERELVAGISSTGSTYYADSVKGRVTLSRDNAKNTVYLQMNSLKPEDTAVYYCATDFGDIGDDAHSLGYDYWGQGTQVTVSS | low polyreactivity
10 | QVQLVESGGGLVQAGGSLRLICAASGSIFYRNAMGWYRQAPGKERELVAAISSDGSTNYADSVKGRFTISRDNAKNTVYLQMNSLKPEDTAVYYCAAPWTQILDYWGQGTQVTVSS | low polyreactivity
11 | QVQLVESGGGLVQAGGSLRLICAASGSIFYRYAMGWYRQAHGKEREFVAAITYSSRTTYYADSVQGRFTISRDNAKNTVYLQMNSLKPEDTAVYYCAAELSSSYYRRAMDYCGQGTQVTVSS | high polyreactivity
12 | QVQLVESGGGLVQAGGSLRLICAASGSIIGVNAMGWYRQAPGKERELVAAITSTGGSTYYADSVKGRFTISRDNAKNTVYLKMNSLKPEDTAVYYCNTHYSKSIGEGYAGFDYWGQGTQVTVSS | low polyreactivity
13 | QVQLVESGGGLVQAGGSLRLICAASGSILTHYAMGWYRQAPGKERELVAAITWRGGSTYYADSVKGRFTISRDNAKNTVYLQMNSLKPEDTAVYYCNADYFGGGDYWGQGTQVTVSS | low polyreactivity
14 | QVQLVESGGGLVQAGGSLRLICAASGSTFAIYAMGWYRPAPGKERELVAAITGRSGSTYYADSVKGRFTISRDNAKNTVFLQMNSLKPEDTAVYYCAAQGGYRRTPYIHRDYWGQGTQVTVSS | high polyreactivity
15 | QVQLVESGGGLVQAGGSLRLICAASGSTFGFNAMGWSRQAPGKERELLPLLWSGGSTYYADSVKGRFTISRDNAKNTVYLQMNSLIPEDTAVYYCNKDSPPITRYDYWGQGTQVTVSS | low polyreactivity
16 | QVQLVESGGGLVQAGGSLRLICAASGSTFGYYAMGWYRKAPGKERELVAVITYSGGSTYYADSVKGRFTISRDNAKNTVNLQMNSLKPEDTSVYYCSAVIGVWYYYTYDYWGQGTQVTVSS | low polyreactivity
17 | QVQLVESGGGLVQAGGSLRLICAASGSTFHAYAMGWYRQAPGKEREMVAAISWRGGSTYYADSVKGRFTISRDNAKNTVYLQMNSLKPEDTAVYYCAASVQGLFGTSGMEGVDYWGQGTQVTVSS | high polyreactivity
18 | QVQLVESGGGLVQAGGSLRLICAASGSTFIGNVMGWYRQAPGKERELVAAITSTDSTDYADSVKGRFTISRDNAKNTVYLQMNSLKPEDTAVYYCNAEYEYGSAYWSGVYYWYNYWGQGTQVTVSS | high polyreactivity
19 | QVQLVESGGGLVQAGGSLRLICAASGSTFLGYAMGWYRQAPGKERELVAAISSGGGTYADSVKGRFTISRDNAKNSVYLQMNSLKPEDTAVYYCNADYSTPYRMDYWGQGTQVTVSS | low polyreactivity
20 | QVQLVESGGGLVQAGGSLRLICAASGSTFPKYAMGWYRQAPGKERELVASISVTTGSTYYADSVKGRFTISRDYAKNTVYLQMNSLKPEDTAVYYCAKRTYSRKFRGAYNYWGQGTQVTVSS | high polyreactivity
21 | QVQLVESGGGLVQAGGSLRLICAASGSTFPVNAMGWYRQAPGKERELVAAIRSSTGRTYYADSVKGRFTISRDNAKNTVYLQMNSLKPEDTAVYYCAAYYLGQYEYDYWGQGTQVTVSS | low polyreactivity
22 | QVQLVESGGGLVQAGGSLRLICAASGSTFRKYVMGWYRQAPGKERELVAAITKNGGSTYYADSVKGRFTISRDNAKNTVYLQMNSLKPEDTAVYYCATLRTGRVGNQDYDYWGQGTQVTVSS | high polyreactivity

Row | Sequence | polyreactivity (PSR sort gate)
23 | QVQLVESGGGLVQAGGSLRLICAASGSTFSQYTMGWYRQAPGKERELVAAITGSGGGTYYADSVKGRFTISRDNAKNTVYLHMESLKPVDTAVYYCAALTLNEKYTSRRGVYYWGQGSQVTVSS | high polyreactivity
24 | QVQLVESGGGLVQAGGSLRLICAASGSTFSYYAMGWYRQAPGKEMELVAAITSGSSTNYADSVKGRFTISRDNAKNTVYLQMNSLKPEDTAVYYCAASPQPKTYRRRYYYWGQGTQVTVSS | high polyreactivity
25 | QVQLVESGGGLVQAGGSLRLICAASGSTFYSYAMGWYRQVPGKERELVAAISRRGGSTYYADSVKGRFTISRDNAKNTVYLQMNSLKPEDTAVYYCAADWSRSSAEVDYWGQGTQVTVSS | high polyreactivity
26 | QVQLVESGGGLVQAGGSLRLICAASGSTIVYYAMAWYRQAPGKERELVAAISRVGSTNYADSVKGRFTISRDNAKNTVYLQMNSLKPEDTAVYYCNAERSRRYSGWVNYAPLNYWGQGTQVTVSS | low polyreactivity
27 | QVQLVESGGGLVQAGGSLRLICAASGSTIYSYAMGWYRQAPGKEREMVAANDWSGTSTYYADSVKGRFTISRDNAKNTVYLQMNSLKPVDTAVYYCNARKRRSYQGGYYYSLRNEYWGQGTQVTVSS | high polyreactivity
28 | QVQLVESGGGLVQAGGSLRLICAASGSTSLVYAMGWYRQAPGKERDLVAAISWSGGSTYYADSVKGRFTISRDNAKNTVYLQMNSLKPEDTAVYYCAAEYYGYWEYDYWGQGTQVTVSS | high polyreactivity
29 | QVQLVESGGGLVQAGGSLRLICAASGSTSPTNAMGWYRQAPGKEREFVAAIRGSGSSTRYADSVKGRFTISRDNAKNTVYLQMNSLKPEDTAVYYFDYWGQGTQVTVSS | low polyreactivity
30 | QVQLVESGGGLVQAGGSLRLICAASGSTVYNAMGWYRQAPGTEREFVAVITDSDGSTYYADSVKGRFTISRDNAKNTVYLQMNSLKPEDTAVYDCAADDYAYSYGYWLTYDYWGQGTQVTVSS | low polyreactivity
31 | QVQLVESGGGLVQAGGSLRLICAASGTFRINAMGWYRQAPGKEREFVATITSGGSTNYADSVKGRFTISRDNAKNTVYLQMNSLKPEDTAVYYCSRTRKIAGYYFWGQGTQVTVSS | high polyreactivity
32 | QVQLVESGGGLVQAGGSLRLICAASGTNFVFNAIGWYRQAPGKERELVAINSGGSTYYADSVKGRFTNSRDNAKNTVFLQMNSLIPEDTAVYYCAKDRLRVWRFDYWGQGTQVTVST | low polyreactivity
33 | QVQLVESGGGLVQAGGSLRLICAASGYIFATYAMGWYRQAPGKERELVAAITSTGSTYYADSVKGRFTISRDNAKNTVYLQMNSLKPEDTAVYYCAAVSGYRARYYLYYYWGQGTQVTVSS | high polyreactivity
34 | QVQLVESGGGLVQAGGSLRLICAASGYTFKIKGMGWYRQAPGKERELVATIRAGGGNTYYADSVKGRFTISRDNAKNTVYLQMNSLKPEDTAVYYCNARYLRRTMEYWGQGTQVTVSS | high polyreactivity
35 | QVQLVESGGGLVQAGGSLRLICAASGYTFLDYARGWYRQAPGKERELVASITSSGGSTYYADSVKGRFTISRDNAKNTVFLQMMSLIPEDTAVYYCASDGCIYYYFTLRYGYWGQGTQVTVSS | low polyreactivity
36 | QVQLVESGGGLVQAGGSLRLICAASGYTFSFYAMGWYIQAPGKERELVAAISRSGGSTYYADSVKGRFTISRDNAKNTVYLQMNSLKPEYTAVYYCAARWPGAYHEYGYWGQGTQVTVSS | high polyreactivity
37 | QVQLVESGGGLVQAGGSLRLICAASGYTFYAYAMGWYRQAPGKERELVAAITSGSSTYYADSVKGRFTISRDNAKNTVYLQMNSLKQEDTAVYYCASRIRGWRLLTSYYWGQGTQVTVSS | low polyreactivity
38 | QVQLVESGGGLVQAGGSLRLICAASVSTFRKYAMGRYRQAPGKEREFVAAISSSGGRTYYADSVKGRFTISRDNAKNTVYLQMNSLKPEDTAVYYCNAYFRYSYDYWGQGTQVTVSS | high polyreactivity
39 | QVQLVESGGGLVQAGGSLRLICAATGITLGYYAMGWYRQAPGKERELVAAISYRGGNTYYADSVKGRFTISRDNAKNTVYLQMNSLKPEDTAVYYCNADLGYESGWWSKYDYWGQGTQVTVSS | low polyreactivity
40 | QVQLVESGGGLVQAGGSLRLICAATGRNFRYYAMGWYRQAAGKERQLVAAIRNGGSTYYADSVKGRFTISRDNAKNTVYLQMNSLKPEDTAVYYCAGRYNYVSHRGGDWGHGTQVTVSS | high polyreactivity
41 | QVQLVESGGGLVQAGGSLRLICAAYGSTFVTNVMGWYRQAPGKERELVAAISARGGSTYYADSVKGRFTISRDNAKNTVYLQMNSLKPEDTAVYYCNAVVRPWQSYYYWGQGTQVTVSS | high polyreactivity
42 | QVQLVESGGGLVQAGGSLRLICADSGLIFRWYAMGWYRQAPGKERELVAAISRRGGTTNYADSVKGRFTISRDNAKNTVYLQMNSLKPEDTAVYYCAVSGGFYWGQGTQVTVSS | high polyreactivity
43 | QVQLVESGGGLVQAGGSLRLICADSGRILGINAMGWYRQAPGKERELVAAISSGGSTYYADSVKGRFTISRDNAKNTVYLQMNSLKPEDTAVYYCNVGSYAGWSDHPRYGYWGQGTQVTVSS | high polyreactivity
